Reference: publication PMC10164562

Columns and labels:
[1] = molecular target: BrxL(E280Q) (Acinetobacter sp. 394); assay: cryo-EM structure; BrxL(E280Q), high molecular weight SEC fractions with co-purified host DNA, no added ATP; C1 refinement
[2] = molecular target: wild-type BrxL (Acinetobacter sp. 394); assay: cryo-EM structure; wild-type BrxL, high molecular weight SEC fractions, ~0.8 mg/ml, no added ATP, no bound DNA; C7 symmetry

BrxL(E280Q) (natural protein)
stoichiometry N [1]: 12

wild-type BrxL (natural protein)
stoichiometry N [2]: 14
